Experiments:
Wnt signaling = test: Wnt signalling TCF/LEF-Luc assay in HEK293 cells (Wnt3A conditioned medium plus Dkk1); type: cell-based; conditions: Wnt3A conditioned medium plus Dkk1 protein at 10 nM
Experimental: HEK293 cells were plated into six-well plates. For each well, […] of the TOP-[…] luciferase construct (Upstate Biotechnology) was cotransfected with 0.8 μg Mesd-expressing vector, 0.8 μg Mesd mutant-expressing vector, or empty vector. A β-galactosidase-expressing vector (Promega, Madison, Wis.) was included as an internal control for transfection efficiency. After 48 hours, cells were lysed and both luciferase and β-galactosidase activities were determined with enzyme assay kits (Promega). The luciferase activity was determined with a luminometer using the Dual Luciferase Assay system (Promega). Luciferase activity was normalized to the activity of the P-galactosidase.

LRP6 = LRP6 (Homo sapiens, UniProt O75581); test: ^125I-Mesd cell surface ligand binding to LRP6-transduced HT1080 cells; design: plasmid pCS-Myc-hLRP6 containing the full-length human LRP6 cDNA; HA; expressed in transfected cells; host or cells: human HT1080 cells, stably transduced (pLNCX2 retroviral vector); conditions: LRP6-transduced HT1080 cells; 5 nM ^125I-labelled, 3 hours at 4° C. for Mesd (150-195)
LRP6, sequence (O75581 20-1613): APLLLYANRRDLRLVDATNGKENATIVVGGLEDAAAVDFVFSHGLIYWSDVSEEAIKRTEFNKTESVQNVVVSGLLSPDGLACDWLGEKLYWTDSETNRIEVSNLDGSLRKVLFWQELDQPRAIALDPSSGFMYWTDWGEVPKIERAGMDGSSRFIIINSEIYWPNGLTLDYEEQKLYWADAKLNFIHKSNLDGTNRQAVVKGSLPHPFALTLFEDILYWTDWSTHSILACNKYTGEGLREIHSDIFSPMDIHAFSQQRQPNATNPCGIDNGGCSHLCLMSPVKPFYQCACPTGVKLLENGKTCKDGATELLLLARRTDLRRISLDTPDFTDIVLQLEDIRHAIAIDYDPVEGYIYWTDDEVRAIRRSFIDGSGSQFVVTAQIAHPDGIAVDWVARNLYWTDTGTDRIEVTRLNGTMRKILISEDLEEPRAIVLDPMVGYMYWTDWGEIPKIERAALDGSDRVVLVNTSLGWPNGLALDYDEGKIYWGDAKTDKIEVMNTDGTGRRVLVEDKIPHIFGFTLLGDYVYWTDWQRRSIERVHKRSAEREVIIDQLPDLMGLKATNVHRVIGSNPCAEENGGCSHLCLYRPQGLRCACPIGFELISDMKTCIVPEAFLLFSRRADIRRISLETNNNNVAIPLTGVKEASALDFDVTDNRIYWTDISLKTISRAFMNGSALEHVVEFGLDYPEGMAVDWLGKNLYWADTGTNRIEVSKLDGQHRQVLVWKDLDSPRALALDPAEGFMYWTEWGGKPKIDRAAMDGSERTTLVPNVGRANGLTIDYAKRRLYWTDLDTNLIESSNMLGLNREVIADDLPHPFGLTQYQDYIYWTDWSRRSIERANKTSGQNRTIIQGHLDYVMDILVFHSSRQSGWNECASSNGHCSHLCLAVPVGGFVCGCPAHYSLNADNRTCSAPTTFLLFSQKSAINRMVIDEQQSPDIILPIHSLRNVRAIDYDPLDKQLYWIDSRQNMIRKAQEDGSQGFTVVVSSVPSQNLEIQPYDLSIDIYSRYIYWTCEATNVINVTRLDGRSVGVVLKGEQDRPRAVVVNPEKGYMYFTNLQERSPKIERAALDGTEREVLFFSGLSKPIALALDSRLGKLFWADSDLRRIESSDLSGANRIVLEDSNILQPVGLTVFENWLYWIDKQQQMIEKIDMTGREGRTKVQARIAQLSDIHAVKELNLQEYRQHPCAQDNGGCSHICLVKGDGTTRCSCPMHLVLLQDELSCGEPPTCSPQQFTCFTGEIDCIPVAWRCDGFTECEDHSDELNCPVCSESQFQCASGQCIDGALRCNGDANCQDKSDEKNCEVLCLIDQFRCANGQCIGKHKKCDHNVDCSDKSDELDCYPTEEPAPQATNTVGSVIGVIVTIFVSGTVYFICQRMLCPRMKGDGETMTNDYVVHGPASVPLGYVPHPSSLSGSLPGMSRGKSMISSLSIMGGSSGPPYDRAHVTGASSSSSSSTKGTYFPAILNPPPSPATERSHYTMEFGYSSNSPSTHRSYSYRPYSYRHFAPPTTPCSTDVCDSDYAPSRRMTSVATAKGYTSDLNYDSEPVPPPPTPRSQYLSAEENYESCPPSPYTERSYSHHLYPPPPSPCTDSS
Experimental: To examine whether Mesd binds with high affinity to […] at the cell surface, cell surface ligand binding experiments were performed with cells stably transduced with LRP6 cDNA. Human HT1080 cells, which express undetectable levels of LRP6, were transduced with a viral vector alone (pLNCX2) or with vector containing LRP6 cDNA (Li, Y., Oncogene 23: 9129-9135, 2004) and used for ^125I-Mesd binding (FIG. 1A). ^125I-Mesd (5 nM) reached maximal binding after 2 hours incubation at 4° C. with LRP6-expressing HT1080 cells (FIG. 1A).
(A) Time course of ^125I-Mesd (5 nM) binding to LRP6-transduced HT1080 cells and the control cells. Assay was carried out for the indicated periods at 4° C. in the absence (total) or presence of 500 nM Mesd (non-specific). (B) Saturation binding of ^125I-Mesd to LRP6-transduced HT1080 cells and the control cells. Assay was carried out at indicated concentrations for 3 hours at 4° C. in the absence (total) or presence (non-specific) of 500 nM Mesd. (C) Scatchard plots of data in B. All values are the average of triple determinations with the s.d. indicated by error bars.
Cells (2×10^5) were seeded into 12-well dishes 1 day prior to assay. Ligand-binding buffer (minimal Eagle's medium containing 0.6% BSA with a different concentration of radioligand, 0.6 ml/well) was added to cell monolayers, in the absence or the presence of 500 nM unlabeled RAP or 500 nM unlabeled Mesd, followed with incubation for 0-4 hours at 4° C. Thereafter, overlying buffer containing unbound ligand was removed, and cell monolayers were washed and lysed in low-SDS lysis buffer (62.5 mM Tris-HCl pH 6.8, 0.2% SDS, 10% v/glycerol) and counted.

Binding of Mesd truncation mutants to cell surface LRP6 (LRP6) | Molecule | Restoring of Wnt signaling inhibited by Dkk1 (luciferase activity) (Wnt signaling)
no effect on LRP6 binding | MESD(12-195): truncated Mesd mutant lacking the N-terminal region (N-terminal 11 amino acids of mouse Mesd) (protein, left off: small tags and cut ends) RKKKDIRDYNDADMARLLEQWEKDDDIEEGDLPEHKRPSAPIDFSKLDPGKPESILKMTKKGKTLMMFVTVSGNPTEKETEEITSLWQGSLFNANYDVQRFIVGSDRAIFMLRDGSYAWEIKDFLVSQDRCAEVTLEGQMYPGKGGGSKEKNKTKPEKAKKKEGDRKPRASKEDNRAGSRREDL | –
completely abolished LRP6 binding | Mesd(12-155): truncated Mesd mutant lacking both the N-terminal and C-terminal regions (protein, left off: small tags and cut ends, truncated Mesd mutant lacking both the N-terminal and C-terminal regions) RKKKDIRDYNDADMARLLEQWEKDDDIEEGDLPEHKRPSAPIDFSKLDPGKPESILKMTKKGKTLMMFVTVSGNPTEKETEEITSLWQGSLFNANYDVQRFIVGSDRAIFMLRDGSYAWEIKDFLVSQDRCAEVTLEGQMYPGK | –

The remaining lines, values behind:

Molecule | Binding of Mesd truncation mutants to cell surface LRP6 (LRP6) | Restoring of Wnt signaling inhibited by Dkk1 (luciferase activity) (Wnt signaling)
KGGGSKEKNKTKPEKAKKKEGDRKPRASKEDNRAGSR [SEQ ID NO: 21] | – | at least partially restoring Wnt signaling
QMYPGKGGGSKEKNKTKPEKAKKKEGDPKPRASKEDNRAGSRREDL [SEQ ID NO: 22] | necessary and sufficient for LRP6 binding | at least partially restoring Wnt signaling
